Experimental data published in patent US20100021386A1.

Columns and labels:
[1] = target: IGF-II receptor (Long Evans rat liver) (rat); assay: saturation binding of [125I] IGF-II to pooled rat liver homogenate, filter plates; ethanol diet, PPAR-α agonist treated rats
[2] = target: IGF-II receptor (Long Evans rat liver) (rat); assay: saturation binding of [125I] IGF-II to pooled rat liver homogenate, filter plates; ethanol diet, PPAR-γ agonist treated rats
[3] = target: IGF-II receptor (Long Evans rat liver) (rat); assay: saturation binding of [125I] IGF-II to pooled rat liver homogenate, filter plates; control diet, PPAR-α agonist treated rats
[4] = target: IGF-II receptor (Long Evans rat liver) (rat); assay: saturation binding of [125I] IGF-II to pooled rat liver homogenate, filter plates; ethanol diet, vehicle
[5] = target: IGF-II receptor (Long Evans rat liver) (rat); assay: saturation binding of [125I] IGF-II to pooled rat liver homogenate, filter plates; ethanol diet, PPAR-δ agonist treated rats
[6] = target: IGF-II receptor (Long Evans rat liver) (rat); assay: saturation binding of [125I] IGF-II to pooled rat liver homogenate, filter plates; control diet, vehicle
[7] = target: IGF-II receptor (Long Evans rat liver) (rat); assay: saturation binding of [125I] IGF-II to pooled rat liver homogenate, filter plates; control diet, PPAR-δ agonist treated rats
[8] = target: IGF-II receptor (Long Evans rat liver) (rat); assay: saturation binding of [125I] IGF-II to pooled rat liver homogenate, filter plates; control diet, PPAR-γ agonist treated rats

Chain of Human recombinant [125I] IGF-II (P01344 25-91): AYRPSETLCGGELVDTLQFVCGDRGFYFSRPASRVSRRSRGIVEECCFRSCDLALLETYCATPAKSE

BMAX [1]: 28.9
BMAX [2]: 22.6
BMAX [3]: 40.3
BMAX [4]: 22.6
BMAX [5]: 51.5
BMAX [6]: 40.1
BMAX [7]: 29
BMAX [8]: 25.2
Substance: Human recombinant [125I] IGF-II (from UniProt P01344 25-91) (ligand)
